Experimental data: publication PMC8894703, “ZNF191 alters DNA methylation and activates the PI3K‐AKT pathway in hepatoma cells via transcriptional regulation of DNMT1”

B1: Mut-DNMT1(nt-240) EMSA probe, 30 bp (dsDNA)
DNA 1: CCTGAAAGTTTGTTTGTTTGTTTGCCTCGG
DNA 2: CCGAGGCAAACAAACAAACAAACTTTCAGG
B2: DNMT1(nt-240) EMSA probe, 30 bp (dsDNA)
DNA 1: CCTGAAAGAATGAATGAATGAATGCCTCGG
DNA 2: CCGAGGCATTCATTCATTCATTCTTTCAGG

Molecular target: ZNF191 (zinc finger protein 191) (UniProt P17028 1-368)
Assay: EMSA; LightShift Chemiluminescent EMSA kit (Pierce); buffer, salt, pH and temperature not given; unlabeled oligonucleotides used for competition, outcome not given
Settings: protein: recombinant; label: 5' biotin; blunt

ZNF191 (zinc finger protein 191), sequence (P17028 whole entry): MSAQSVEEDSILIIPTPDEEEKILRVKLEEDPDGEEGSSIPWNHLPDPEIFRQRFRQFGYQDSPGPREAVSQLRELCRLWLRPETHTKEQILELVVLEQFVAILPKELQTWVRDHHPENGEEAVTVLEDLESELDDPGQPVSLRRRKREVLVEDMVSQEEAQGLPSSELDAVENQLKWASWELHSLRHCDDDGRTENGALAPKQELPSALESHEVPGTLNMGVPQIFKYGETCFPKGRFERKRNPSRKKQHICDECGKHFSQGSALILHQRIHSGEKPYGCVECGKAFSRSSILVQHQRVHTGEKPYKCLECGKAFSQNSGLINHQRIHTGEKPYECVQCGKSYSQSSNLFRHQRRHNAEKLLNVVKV

Binder	binding result
B1	no binding
B2	binds
